From US20240190948A1 (Chugai, published 2024)
Changes are numbered by the printed parent chain.

T1: human FcγRIIIb (NA1) (human, UniProt O75015 17-200)
T1 construct: also called human FcγR3b allelic variant NA1
T1 chain: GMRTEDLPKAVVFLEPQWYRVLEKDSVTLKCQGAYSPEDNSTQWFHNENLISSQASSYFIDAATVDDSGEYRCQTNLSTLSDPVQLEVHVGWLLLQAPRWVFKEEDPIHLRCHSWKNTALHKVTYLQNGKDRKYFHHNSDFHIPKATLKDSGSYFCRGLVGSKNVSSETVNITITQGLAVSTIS

T2: human FcγRIIb (human, UniProt P31994 43-217)
T2 construct: also called human FcγR2b
T2 sequence: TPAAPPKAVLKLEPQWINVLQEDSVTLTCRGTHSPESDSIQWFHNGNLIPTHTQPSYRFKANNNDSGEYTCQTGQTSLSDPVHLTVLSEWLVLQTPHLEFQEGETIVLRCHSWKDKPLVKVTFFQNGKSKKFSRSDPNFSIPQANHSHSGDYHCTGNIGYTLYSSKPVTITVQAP

T3: human FcγRIIIb (NA2) (human, UniProt O75015 17-200)
T3 construct: also called human FcγR3b allelic variant NA2
T3 chain: T1 chain with R20S, N49S, D66N, V90I

T4: mouse FcγRIV (mouse, UniProt A0A0B4J1G0 21-203)
T4 construct: also called mFcγRIV; mouse FcγR4
T4 sequence: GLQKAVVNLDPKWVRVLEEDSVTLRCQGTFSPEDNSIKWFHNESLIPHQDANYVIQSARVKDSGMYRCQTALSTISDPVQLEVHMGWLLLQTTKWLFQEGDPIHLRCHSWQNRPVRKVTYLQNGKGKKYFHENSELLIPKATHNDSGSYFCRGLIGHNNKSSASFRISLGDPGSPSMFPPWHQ

T5: mouse FcγRIII (mouse, UniProt P08508 31-215)
T5 construct: also called mFcγRIII; mouse FcγR3
T5 chain: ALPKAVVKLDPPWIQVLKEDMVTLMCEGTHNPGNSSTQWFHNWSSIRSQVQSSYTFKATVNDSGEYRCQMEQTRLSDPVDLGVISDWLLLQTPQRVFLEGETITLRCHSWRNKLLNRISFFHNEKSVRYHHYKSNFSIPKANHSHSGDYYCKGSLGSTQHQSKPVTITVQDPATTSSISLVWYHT

T6: mouse FcγRI (mouse, UniProt P26151 25-297)
T6 construct: also called mFcγRI; mouse FcγR1
T6 sequence: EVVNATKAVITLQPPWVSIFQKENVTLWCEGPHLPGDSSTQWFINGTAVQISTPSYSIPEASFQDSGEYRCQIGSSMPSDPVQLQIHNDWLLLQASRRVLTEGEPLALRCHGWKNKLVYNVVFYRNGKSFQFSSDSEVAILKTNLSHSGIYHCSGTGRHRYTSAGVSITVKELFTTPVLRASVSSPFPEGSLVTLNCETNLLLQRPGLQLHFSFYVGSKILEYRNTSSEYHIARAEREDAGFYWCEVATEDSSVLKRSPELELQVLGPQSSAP

T7: human FcγRIIa (167R) (human, UniProt P12318 36-217)
T7 construct: also called human FcγR2a allelic variant 167R
T7 chain: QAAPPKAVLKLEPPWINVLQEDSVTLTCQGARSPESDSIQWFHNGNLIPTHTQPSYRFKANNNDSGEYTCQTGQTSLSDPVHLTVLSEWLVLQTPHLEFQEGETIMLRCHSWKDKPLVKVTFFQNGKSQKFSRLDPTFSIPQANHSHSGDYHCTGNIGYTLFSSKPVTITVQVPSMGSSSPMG

B1: Anti-CD154 antibody with Fc variant LALA + KAES (SG1095) (antibody, human IgG1, kappa, L234A L235A)
heavy: EVQLVESGGGSVKPGGSLKLSCAASGFTFSDHYMYWVRQTPEKRLEWVAIISGGGSYTSYPDSMKGRFTISRDNAKNILHLQMSSLKSEDTAMYYCTRESNGKPGFAYWGQGTLVTVSAASTKGPSVFPLAPSSKSTSGGTAALGCLVKDYFPEPVTVSWNSGALTSGVHTFPAVLQSSGLYSLSSVVTVPSSSLGTQTYICNVNHKPSNTKVDKRVEPKSCDKTHTCPPCPAPEAAGGPSVFLFPPKPKDTLMISRTPEVTCVVVDVSHEDPEVKFNWYVDGVEVHNAKTKPREEQYNSTYRVVSVLTVLHQDWLNGKEYKCKVSNAALPAPISKTISKAKGQPREPQVYTLPPSREEMTKNQVSLTCLVKGFYPSDIAVEWESNGQPENNYKTTPPVLDSDGSFFLYSKLTVDKSRWQQGNVFSCSVMHEALHNHYTQKSLSLSP
light: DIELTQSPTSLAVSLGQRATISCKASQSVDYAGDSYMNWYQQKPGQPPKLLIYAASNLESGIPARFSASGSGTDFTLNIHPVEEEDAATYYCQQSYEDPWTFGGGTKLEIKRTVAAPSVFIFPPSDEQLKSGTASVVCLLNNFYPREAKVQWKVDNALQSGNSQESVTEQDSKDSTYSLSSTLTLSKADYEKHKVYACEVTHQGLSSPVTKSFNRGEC
B2: Anti-CD154 antibody with Fc variant LALA + KWES (SG1088) (antibody, human IgG1, kappa, L234A L235A)
heavy: B1 heavy with A328W
light: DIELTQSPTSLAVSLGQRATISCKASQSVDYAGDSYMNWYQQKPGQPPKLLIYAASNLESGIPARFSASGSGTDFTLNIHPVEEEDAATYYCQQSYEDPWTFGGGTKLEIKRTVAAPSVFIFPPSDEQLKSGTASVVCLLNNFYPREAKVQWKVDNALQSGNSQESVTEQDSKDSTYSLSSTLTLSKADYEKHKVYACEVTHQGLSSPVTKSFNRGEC
B3: DG_3CH1047-SG1106/3CL-SK1 (antibody)
heavy: QVQLVQSGPDVEKPGASVKVSCKASGYTFTSYYMHWVRQAPGQGLEWMGVINPRGGSRRSAQKFQGRITMTRDTSTSTVYMELSSLRSEDTAVYYCARGGEALFYDSYTTPFDGGSWWFDPWGQGSLVTVSSASTKGPSVFPLAPSSKSTSGGTAALGCLVKDYFPEPVTVSWNSGALTSGVHTFPAVLQSSGLYSLSSVVTVPSSSLGTQTYICNVNHKPSNTKVDKRVEPKSCDKTHTCPPCPAPEAAGGPSVFLFPPKPKDTLMISRTPEVTCVVVDVSHEDPEVKFNWYVDGVEVHNAKTKPREEQYNSTYRVVSVLTVLHQDWLNGKEYKCKVSNAALPAPISKTISKAKGQPREPQVYTLPPSREEMTKNQVSLTCLVKGFYPSDIAVEWESNGQPENNYKTTPPVLDSDGSFFLYSKLTVDKSRWQQGNVFSCSVLHEALHAHYTRKELSLSP
light: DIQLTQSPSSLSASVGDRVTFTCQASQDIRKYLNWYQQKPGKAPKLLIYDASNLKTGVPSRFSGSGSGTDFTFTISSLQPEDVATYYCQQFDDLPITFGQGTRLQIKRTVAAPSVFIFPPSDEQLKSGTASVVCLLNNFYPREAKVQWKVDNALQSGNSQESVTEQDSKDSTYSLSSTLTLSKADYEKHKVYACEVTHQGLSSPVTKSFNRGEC
B4: DG_3CH-SG182/3CL-SK1 (antibody, V domains shown)
VH: QVQLVQSGPDVEKPGASVKVSCKASGYTFTSNYIHWVRQAPGQGLEWMGVINPRGGSTASAQKFQGRITMTRDTSTSTVYMELSSLRSDDTAVYYCARGGRALFYDSYTTPRDGGSWWFDPWGQGSLVTVSS
VL: DIQLTQSPSSLSASVGDRVTFTCQASQDIRKYLNWYQQKPGKAPKLLIYDASNLKTGVPSRFSGSGSGTDFTFTISSLQPEDVATYYCQQFDDLPITFGQGTRLQIKR
B5: DG_3CH987-SG182/3CL-SK1 (antibody, V domains shown)
VH: B4 VH with N32Y, T58R, A59R, D89E, R112F
VL: B4 VL
B6: DG_3CH953-SG182/3CL499-SK1 (antibody, human IgG1, kappa, V domains shown)
VH: B4 VH with T58R, A59R, D89E, R112F
VL: B4 VL with T56F, D93A

How the values were obtained:
human FcγRIIIb (NA1) = biological target: T1, human FcγRIIIb (NA1); test: SPR (Biacore T200, pH 7.4): His-tagged FcγR captured, antibody alone or 1:1 immune complex with trimeric CD154 injected at 100 nM; response divided by capture level [g]
human FcγRIIb = biological target: T2, human FcγRIIb; test: SPR (Biacore T200, pH 7.4): His-tagged FcγR captured, antibody alone or 1:1 immune complex with trimeric CD154 injected at 100 nM; response divided by capture level [d]
human FcγRIIIb (NA2) = biological target: T3, human FcγRIIIb (NA2); test: SPR (Biacore T200, pH 7.4): His-tagged FcγR captured, antibody alone or 1:1 immune complex with trimeric CD154 injected at 100 nM; response divided by capture level [h]
mouse FcγRIV = biological target: T4, mouse FcγRIV; test: SPR (Biacore T200, pH 7.4): His-tagged FcγR captured, antibody alone or 1:1 immune complex with trimeric CD154 injected at 100 nM; response divided by capture level [d]
mouse FcγRIII = biological target: T5, mouse FcγRIII; test: SPR (Biacore T200, pH 7.4): His-tagged FcγR captured, antibody alone or 1:1 immune complex with trimeric CD154 injected at 100 nM; response divided by capture level [c]
mouse FcγRI = biological target: T6, mouse FcγRI; test: SPR (Biacore T200, pH 7.4): His-tagged FcγR captured, antibody alone or 1:1 immune complex with trimeric CD154 injected at 100 nM; response divided by capture level [a]
human FcγRIIa (167R) = biological target: T7, human FcγRIIa (167R); test: SPR (Biacore T200, pH 7.4): His-tagged FcγR captured, antibody alone or 1:1 immune complex with trimeric CD154 injected at 100 nM; response divided by capture level [c]
[1] = biological target: Zika virus (Asian strain, accession number KF993678) (Zika virus); test: cell-based or functional assay
[2] = biological target: T8, Recombinant soluble E protein (0.8E-His) from DENV-3 (DENV-3, UniProt P27915 281-673)
[3] = biological target: T8, Recombinant soluble E protein …; test: SPR Biacore T200

Binder | binding result (human FcγRIIIb (NA1)) | binding result (human FcγRIIb) | binding result (human FcγRIIIb (NA2)) | binding result (mouse FcγRIV) | Kd [2] [nM] | other results
B1 | no binding (tested: 100 nM) | no binding (tested: 100 nM) | no binding (tested: 100 nM) | no binding (tested: 100 nM) |  | binding result (mouse FcγRIII): no binding (tested: 100 nM); binding result (mouse FcγRI): no binding (tested: 100 nM); binding result (human FcγRIIa (167R)): no binding (tested: 100 nM)
B2 | no binding (tested: 100 nM) | no binding (tested: 100 nM) | no binding (tested: 100 nM) | no binding (tested: 100 nM) |  | 
B3 |  |  |  |  |  | EC50 (µg/mL), FRNT neutralization, Average [1]: 0.63 µg/mL; EC50 (µg/mL), FRNT neutralization, Expt 1 [1]: 0.33 µg/mL; EC50 (µg/mL), FRNT neutralization, Expt 2 [1]: 0.93 µg/mL
B4 |  |  |  |  | 6.35 | 
B5 |  |  |  |  | 0.000988 | 
B6 |  |  |  |  |  | binding result [3]: binds
